# Primed or numbered codes have the meaning given here. [ ]: non-standard residue; d: D form. α′‑methyl‑α′,β′‑epoxide = C-terminal α′-methyl-α′,β′-epoxyketone; hPhe = N[C@@H](CCc1ccccc1)C(=O)O; Nle = CCCC[C@H](N)C(=O)O
# B1: Ac-GPFL-Ex (peptide)
# peptide: Ac-GPFL-{α′‑methyl‑α′,β′‑epoxide}
# B2: Pyrazinecarbonyl-PFL-Ex (peptide)
# peptide: pyrazinecarbonyl-Pro-Phe-Leu-{α′,β′‑epoxide with α′‑methyl (epoxyketone)}
# modifications: also: C-terminal Leu as α′,β′-epoxyketone (epoxide) with α′-methyl substituent
# B3: Ac-NorLPFL-Ex (peptide)
# peptide: Ac-[Nle]PFL-{α′‑methyl‑α′,β′‑epoxide}
# B4: N-dimethylaminobenzoyl-PFL-EX (peptide)
# peptide: {N‑dimethylaminobenzoyl}-Pro-Phe-Leu-{α′,β′‑epoxide with α′‑methyl (epoxyketone)}
# modifications: also: C-terminal Leu as α′,β′-epoxyketone (epoxide) with α′-methyl substituent
# B5: Isooctanioc-PFL-Ex (peptide)
# peptide: isooctanoyl-Pro-Phe-Leu-{α′,β′‑epoxide with α′‑methyl (epoxyketone)}
# modifications: also: C-terminal Leu as α′,β′-epoxyketone (epoxide) with α′-methyl substituent
# B6: Ac-LLFL-epoxide (peptide)
# peptide: Ac-LLFL-{α′‑methyl‑α′,β′‑epoxide}
# B7: Ac-LALL-epoxide (peptide)
# peptide: Ac-LALL-{α′‑methyl‑α′,β′‑epoxide}
# B8: Ac-ALLL-epoxide (peptide)
# peptide: Ac-ALLL-{α′‑methyl‑α′,β′‑epoxide}
# B9: Ac-LLAL-epoxide (peptide)
# peptide: Ac-LLAL-{α′‑methyl‑α′,β′‑epoxide}
# B10: Ac-LFLL-epoxide (peptide)
# peptide: Ac-LFLL-{α′‑methyl‑α′,β′‑epoxide}
# B11: compound 16 (peptide)
# peptide: Ac-[hPhe]LFL-{α′‑methyl‑α′,β′‑epoxide}
# Biological target: proteasome in bovine aortic endothelial (BAE) cells (bovine)
# Test: cell-based or functional assay
row,"IC50, inhibition of BAE cell proliferation [nM]",Binder
1,58000,B1
2,400,B2
3,53000,B3
4,400,B4
5,600,B5

# Biological target: proteasome in bovine aortic endothelial (BAE) cells (bovine)
# Test: cell-based or functional assay
# Remark: another data set of the same source
row,"IC50, inhibition of BAE cell proliferation ([methyl-3H]-thymidine incorporation) [nM]",Binder
1,7,B6
2,700,B7
3,83,B8
4,34,B9
5,16,B10
6,20,B11

# Reference: patent publication US20040266664A1 (YALE UNIVERSITY, published 2004)
